Measurements reported in patent publication US8703143.

Columns and labels:
Assay in all cases: ELISA on coated antigen, background subtracted
[1] = biological target: recombinant FN fragment 789 (human) (UniProt P02751)
[2] = biological target: human plasma fibronectin (human) (UniProt P02751)
[3] = biological target: recombinant FN fragment 7B89 (human) (UniProt P02751)
[4] = biological target: recombinant FN domain 6 (human) (UniProt P02751)
[5] = biological target: recombinant ED-B domain of human fibronectin with a carboxy terminal hexahistidine tag (human) (UniProt P02751)
[6] = biological target: large isoform of tenascin-C (UniProt P24821)
[7] = biological target: native FN 120 kD (B+) thermolysin fragment (human) (UniProt P02751)
[8] = biological target: fibronectin purified from the conditioned medium of the SV40-transformed cell line WI38VA13 (human) (UniProt P02751)
[9] = biological target: native FN 110 kD (B-) thermolysin fragment (human) (UniProt P02751)
native FN 110 kD (B-) thermolysin fragment (human), sequence (P02751 other isoform, or with tags, fused parts or gaps limits assumed): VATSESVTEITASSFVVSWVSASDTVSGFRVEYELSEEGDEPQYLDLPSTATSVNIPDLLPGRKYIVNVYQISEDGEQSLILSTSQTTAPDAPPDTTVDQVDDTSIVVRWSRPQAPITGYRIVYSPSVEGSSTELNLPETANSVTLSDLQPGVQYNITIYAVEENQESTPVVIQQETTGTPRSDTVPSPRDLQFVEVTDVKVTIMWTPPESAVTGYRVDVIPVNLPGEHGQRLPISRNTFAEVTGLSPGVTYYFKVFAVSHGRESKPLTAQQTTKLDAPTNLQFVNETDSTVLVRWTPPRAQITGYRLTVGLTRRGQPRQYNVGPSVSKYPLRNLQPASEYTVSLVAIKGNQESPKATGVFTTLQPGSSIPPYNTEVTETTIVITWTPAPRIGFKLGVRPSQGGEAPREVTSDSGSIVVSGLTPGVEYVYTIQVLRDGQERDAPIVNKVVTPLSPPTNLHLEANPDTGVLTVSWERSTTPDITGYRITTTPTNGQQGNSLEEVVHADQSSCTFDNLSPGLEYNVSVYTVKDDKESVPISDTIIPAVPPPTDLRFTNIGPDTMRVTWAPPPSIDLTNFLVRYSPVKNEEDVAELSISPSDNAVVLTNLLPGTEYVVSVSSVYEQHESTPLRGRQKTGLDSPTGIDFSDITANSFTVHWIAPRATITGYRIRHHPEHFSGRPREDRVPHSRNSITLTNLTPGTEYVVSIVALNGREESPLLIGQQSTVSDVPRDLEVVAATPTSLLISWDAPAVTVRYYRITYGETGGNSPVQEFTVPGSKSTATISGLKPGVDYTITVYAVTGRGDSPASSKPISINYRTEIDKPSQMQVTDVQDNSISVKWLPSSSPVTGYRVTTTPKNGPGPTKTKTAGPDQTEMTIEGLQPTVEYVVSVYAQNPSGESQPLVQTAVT

recombinant FN domain 6 (human), sequence (P02751 other isoform, or with tags, fused parts or gaps limits assumed): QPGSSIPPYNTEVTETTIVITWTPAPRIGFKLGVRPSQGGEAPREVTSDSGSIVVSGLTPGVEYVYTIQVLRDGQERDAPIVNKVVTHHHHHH
large isoform of tenascin-C, sequence (P24821 23-2201): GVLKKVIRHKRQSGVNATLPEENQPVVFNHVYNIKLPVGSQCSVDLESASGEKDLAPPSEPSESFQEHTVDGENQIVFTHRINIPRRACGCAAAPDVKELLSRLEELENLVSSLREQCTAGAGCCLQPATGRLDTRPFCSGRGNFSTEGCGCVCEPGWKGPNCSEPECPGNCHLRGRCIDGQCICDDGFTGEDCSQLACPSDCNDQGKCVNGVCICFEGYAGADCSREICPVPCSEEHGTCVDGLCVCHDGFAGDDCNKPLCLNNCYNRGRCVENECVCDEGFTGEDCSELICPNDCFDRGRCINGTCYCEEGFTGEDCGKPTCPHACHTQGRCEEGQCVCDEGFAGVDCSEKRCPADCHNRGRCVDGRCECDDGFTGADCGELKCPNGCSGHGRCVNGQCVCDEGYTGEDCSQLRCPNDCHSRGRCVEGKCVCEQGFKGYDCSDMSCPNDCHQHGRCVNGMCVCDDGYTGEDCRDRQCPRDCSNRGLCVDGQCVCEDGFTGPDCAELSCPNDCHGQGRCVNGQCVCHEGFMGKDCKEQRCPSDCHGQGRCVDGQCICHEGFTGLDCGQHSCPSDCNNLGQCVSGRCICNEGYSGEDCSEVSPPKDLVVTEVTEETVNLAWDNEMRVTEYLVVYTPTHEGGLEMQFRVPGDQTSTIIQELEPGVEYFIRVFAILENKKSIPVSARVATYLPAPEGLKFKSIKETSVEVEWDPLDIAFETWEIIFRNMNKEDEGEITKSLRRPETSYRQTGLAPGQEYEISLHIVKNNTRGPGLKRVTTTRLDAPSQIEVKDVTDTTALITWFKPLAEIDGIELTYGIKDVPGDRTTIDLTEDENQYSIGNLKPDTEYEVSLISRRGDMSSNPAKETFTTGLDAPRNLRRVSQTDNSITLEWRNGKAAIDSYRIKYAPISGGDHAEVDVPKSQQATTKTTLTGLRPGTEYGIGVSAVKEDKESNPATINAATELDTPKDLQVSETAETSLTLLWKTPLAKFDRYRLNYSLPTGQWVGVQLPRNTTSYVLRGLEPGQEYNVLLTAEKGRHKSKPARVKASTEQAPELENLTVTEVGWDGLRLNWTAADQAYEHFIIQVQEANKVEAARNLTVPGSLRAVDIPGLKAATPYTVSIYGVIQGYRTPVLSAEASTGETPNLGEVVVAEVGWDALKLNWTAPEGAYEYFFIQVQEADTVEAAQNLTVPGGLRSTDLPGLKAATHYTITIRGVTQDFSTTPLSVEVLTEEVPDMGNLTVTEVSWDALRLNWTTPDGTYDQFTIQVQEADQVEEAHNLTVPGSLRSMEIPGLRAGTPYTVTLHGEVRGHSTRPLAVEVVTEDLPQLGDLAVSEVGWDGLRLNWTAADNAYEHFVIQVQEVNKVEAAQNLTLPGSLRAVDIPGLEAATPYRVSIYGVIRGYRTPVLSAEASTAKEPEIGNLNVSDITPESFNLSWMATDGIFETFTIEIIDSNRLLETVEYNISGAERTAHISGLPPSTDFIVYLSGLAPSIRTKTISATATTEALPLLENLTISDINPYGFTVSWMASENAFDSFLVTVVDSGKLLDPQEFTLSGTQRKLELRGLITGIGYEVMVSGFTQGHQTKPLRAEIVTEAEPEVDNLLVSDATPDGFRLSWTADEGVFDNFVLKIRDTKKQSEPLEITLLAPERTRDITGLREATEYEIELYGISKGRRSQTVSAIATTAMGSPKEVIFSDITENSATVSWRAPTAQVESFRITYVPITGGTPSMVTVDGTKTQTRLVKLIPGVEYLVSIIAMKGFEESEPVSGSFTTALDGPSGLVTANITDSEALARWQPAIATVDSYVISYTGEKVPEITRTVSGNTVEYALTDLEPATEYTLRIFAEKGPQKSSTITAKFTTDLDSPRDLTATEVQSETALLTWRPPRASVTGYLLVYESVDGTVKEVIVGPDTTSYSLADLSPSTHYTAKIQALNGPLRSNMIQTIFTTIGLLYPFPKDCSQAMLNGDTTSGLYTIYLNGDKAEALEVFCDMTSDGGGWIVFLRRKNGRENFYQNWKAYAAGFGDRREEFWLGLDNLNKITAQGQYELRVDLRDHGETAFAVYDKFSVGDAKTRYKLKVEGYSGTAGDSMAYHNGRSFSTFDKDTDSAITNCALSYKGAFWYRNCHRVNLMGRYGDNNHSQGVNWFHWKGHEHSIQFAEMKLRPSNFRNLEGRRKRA
recombinant FN fragment 7B89 (human), sequence (P02751 other isoform, or with tags, fused parts or gaps limits assumed): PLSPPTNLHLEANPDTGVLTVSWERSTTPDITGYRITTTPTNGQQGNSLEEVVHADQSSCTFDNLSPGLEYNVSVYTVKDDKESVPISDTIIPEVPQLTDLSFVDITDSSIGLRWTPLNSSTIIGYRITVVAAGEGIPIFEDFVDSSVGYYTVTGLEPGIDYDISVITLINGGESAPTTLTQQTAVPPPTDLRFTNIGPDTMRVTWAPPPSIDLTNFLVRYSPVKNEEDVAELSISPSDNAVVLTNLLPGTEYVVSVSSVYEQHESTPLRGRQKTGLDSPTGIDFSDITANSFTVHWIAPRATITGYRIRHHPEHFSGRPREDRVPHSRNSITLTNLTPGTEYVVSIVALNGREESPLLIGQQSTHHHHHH
recombinant ED-B domain of human fibronectin with a carboxy terminal hexahistidine tag (human), sequence (P02751 other isoform, or with tags, fused parts or gaps limits assumed): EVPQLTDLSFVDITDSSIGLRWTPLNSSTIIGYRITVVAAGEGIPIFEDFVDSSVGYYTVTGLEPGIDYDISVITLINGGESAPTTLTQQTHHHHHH
native FN 120 kD (B+) thermolysin fragment (human), sequence (P02751 722-1721 limits assumed): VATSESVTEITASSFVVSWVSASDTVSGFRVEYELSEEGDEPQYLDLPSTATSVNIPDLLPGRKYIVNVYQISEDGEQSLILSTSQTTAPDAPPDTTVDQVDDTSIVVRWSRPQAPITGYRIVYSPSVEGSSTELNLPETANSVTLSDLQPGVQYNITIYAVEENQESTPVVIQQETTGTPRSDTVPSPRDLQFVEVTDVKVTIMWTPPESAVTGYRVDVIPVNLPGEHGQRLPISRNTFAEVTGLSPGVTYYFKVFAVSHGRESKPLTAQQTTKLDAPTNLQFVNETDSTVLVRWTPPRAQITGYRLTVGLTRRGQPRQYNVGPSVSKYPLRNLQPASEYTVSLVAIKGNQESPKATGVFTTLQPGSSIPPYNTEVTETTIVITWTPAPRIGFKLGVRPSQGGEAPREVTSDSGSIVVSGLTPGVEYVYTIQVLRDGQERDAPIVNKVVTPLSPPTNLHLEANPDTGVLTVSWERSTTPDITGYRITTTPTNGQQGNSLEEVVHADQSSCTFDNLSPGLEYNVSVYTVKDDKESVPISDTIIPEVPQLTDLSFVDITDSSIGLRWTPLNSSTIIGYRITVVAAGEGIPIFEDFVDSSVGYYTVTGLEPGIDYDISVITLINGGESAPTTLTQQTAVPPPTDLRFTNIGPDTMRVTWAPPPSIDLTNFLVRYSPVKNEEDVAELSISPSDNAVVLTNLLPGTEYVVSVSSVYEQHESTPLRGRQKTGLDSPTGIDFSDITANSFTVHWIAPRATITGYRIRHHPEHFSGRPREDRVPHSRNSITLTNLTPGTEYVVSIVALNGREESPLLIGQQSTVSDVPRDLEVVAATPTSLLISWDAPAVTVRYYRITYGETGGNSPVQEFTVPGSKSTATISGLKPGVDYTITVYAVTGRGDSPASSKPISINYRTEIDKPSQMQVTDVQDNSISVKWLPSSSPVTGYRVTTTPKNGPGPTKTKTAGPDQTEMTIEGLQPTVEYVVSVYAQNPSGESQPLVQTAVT
recombinant FN fragment 789 (human), sequence (P02751 other isoform, or with tags, fused parts or gaps limits assumed): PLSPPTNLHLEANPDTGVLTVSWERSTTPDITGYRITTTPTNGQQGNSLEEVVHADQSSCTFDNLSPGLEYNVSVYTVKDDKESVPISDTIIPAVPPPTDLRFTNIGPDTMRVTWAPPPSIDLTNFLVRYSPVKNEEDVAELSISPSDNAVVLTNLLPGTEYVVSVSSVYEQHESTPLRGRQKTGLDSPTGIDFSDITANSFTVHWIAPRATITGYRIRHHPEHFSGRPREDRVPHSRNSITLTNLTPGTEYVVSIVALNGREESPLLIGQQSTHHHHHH

OD at 405 nm [1] [OD 405 nm]	OD at 405 nm [2] [OD 405 nm]	OD at 405 nm [3] [OD 405 nm]	OD at 405 nm [4] [OD 405 nm]	OD at 405 nm [5] [OD 405 nm]	OD at 405 nm [6] [OD 405 nm]	OD at 405 nm [7] [OD 405 nm]	OD at 405 nm [8] [OD 405 nm]	OD at 405 nm [9] [OD 405 nm]	Substance
0.05	0.09	1.02	0.08	0.15	0.06	1.2	1.2	0.05	mAb BC-1 (antibody)
1.25	1.73	0.01	0.03	0.04	0.02	0.02	1.12	1.2	mAb IST-6 (antibody)
